Data on 1 molecule can be found in US20050234225A1.

The target of the test is KDR-alkaline phosphatase (AP) soluble fusion protein (human) (UniProt P35968). Put plainly: BIAcore SPR, KDR immobilized. (Surface plasmon resonance follows binding to a sensor surface in real time, without labels.)
Sequence of KDR-alkaline phosphatase (AP) soluble fusion protein (human) (P35968 20-764): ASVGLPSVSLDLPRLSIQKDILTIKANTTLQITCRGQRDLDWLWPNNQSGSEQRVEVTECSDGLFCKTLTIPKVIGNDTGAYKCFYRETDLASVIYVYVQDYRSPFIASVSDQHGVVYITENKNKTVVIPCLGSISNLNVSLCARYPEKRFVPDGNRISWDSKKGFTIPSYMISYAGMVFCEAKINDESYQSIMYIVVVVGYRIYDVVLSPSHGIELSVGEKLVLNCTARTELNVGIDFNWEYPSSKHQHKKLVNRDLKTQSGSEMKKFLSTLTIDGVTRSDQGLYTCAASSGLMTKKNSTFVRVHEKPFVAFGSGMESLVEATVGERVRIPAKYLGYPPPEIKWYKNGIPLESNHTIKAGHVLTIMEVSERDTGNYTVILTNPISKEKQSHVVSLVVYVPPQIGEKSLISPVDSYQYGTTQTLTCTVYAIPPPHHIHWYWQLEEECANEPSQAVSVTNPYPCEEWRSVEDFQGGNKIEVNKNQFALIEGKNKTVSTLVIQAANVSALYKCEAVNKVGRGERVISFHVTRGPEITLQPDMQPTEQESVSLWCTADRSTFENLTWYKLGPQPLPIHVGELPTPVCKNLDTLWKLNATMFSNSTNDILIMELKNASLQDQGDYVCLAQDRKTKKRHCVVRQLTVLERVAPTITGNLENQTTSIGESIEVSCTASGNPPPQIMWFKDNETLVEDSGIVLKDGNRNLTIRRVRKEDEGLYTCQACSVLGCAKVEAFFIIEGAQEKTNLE

B1: p1C11 scFv (scFv, from another filing)
scFv: QVKLQQSGAELVGSGASVKLSCTTSGFNIKDFYMHWVKQRPEQGLEWIGWIDPENGDSDYAPKFQGKATMTADSSSNTAYLQLSSLTSEDTAVYYCNAYYGDYEGYWGQGTTVTVSSGGGGSGGGGSGGGGSDIELTQSPAIMSASPGEKVTITCSASSSVSYMHWFQQKPGTSPKLWIYSTSNLASGVPARFSGSGSGTSYSLTISRMEAEDAATYYCQQRSSYPFTFGSGTKLEIK
A word on the Kd: it is a measure of binding affinity in units of concentration. A high value points to weaker binding. By koff is commonly meant the first-order rate constant of dissociation. One may read the kon as the second-order rate constant of association. Low values mean slow association, high ones fast association. Take B1: the Kd worked out at 1.4 nM, the koff was found to be 0.0001 s⁻¹ and the kon was 77000 M⁻¹ s⁻¹.
